Data: patent US20210179686A1 (Memorial Sloan Kettering, published 2021)
Positions count from the first letter of the chain named.

Key:
[1] = target: T1, 3N mutant: EE12R3E45L linker EE12RR345L membrane-bound construct; assay: FLAG staining of co-transduced C1498 cells, flow cytometry (FIG. 20)
T1 chain: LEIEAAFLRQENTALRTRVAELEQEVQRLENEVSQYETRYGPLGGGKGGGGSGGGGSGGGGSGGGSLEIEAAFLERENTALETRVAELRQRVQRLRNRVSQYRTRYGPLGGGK
Excerpt: (§1) C1498 cells were co-transduced with the FLAG-RR12EE345L GFP vector and one of the six mutants as part of RR12EE345L linker EE12RR345L BFP vector constructs. […] Thus, mutating the […] leucine zipper at “g” position residues to include repulsive amino acid interactions can reduce the degree of blocking by the linked […]-based mutant leucine zipper.

[2] = target: T2, 2N mutant: EE12345L linker EE12RR345L membrane-bound construct; assay: as above
T2 chain: T1 chain with R18E
Excerpt: as §1

[3] = target: T3, 2M mutant: RR1234E5L linker EE12RR345L membrane-bound construct; assay: as above
T3 chain: T1 chain with E4R, E11R, E25R
Excerpt: as §1

[4] = target: T4, 1N mutant: E1R2EE345L linker EE12RR345L membrane-bound construct; assay: as above
T4 chain: T1 chain with E11R, R18E
Excerpt: as §1

[5] = target: T5, 1M mutant: RR123E45L linker EE12RR345L membrane-bound construct; assay: as above
T5 chain: T1 chain with E4R, E11R
Excerpt: as §1

[6] = target: T6, 3C mutant: RR12345L linker EE12RR345L membrane-bound construct; assay: as above
T6 chain: T1 chain with E4R, E11R, E25R, E32R
Excerpt: as §1

[7] = target: T7, RR12EE345L linker EE12RR345L CD80 (mouse (CD80 part, SEQ ID NO: 111)); assay: co-transduced T cells sorted with anti-FLAG magnetic beads (FIG. 21A)
T7 construct: left out; Expressed on T cells from a vector that also carries the CD20-streptag-CAR; also called CD80 functionalized leucine zipper
T7 chain: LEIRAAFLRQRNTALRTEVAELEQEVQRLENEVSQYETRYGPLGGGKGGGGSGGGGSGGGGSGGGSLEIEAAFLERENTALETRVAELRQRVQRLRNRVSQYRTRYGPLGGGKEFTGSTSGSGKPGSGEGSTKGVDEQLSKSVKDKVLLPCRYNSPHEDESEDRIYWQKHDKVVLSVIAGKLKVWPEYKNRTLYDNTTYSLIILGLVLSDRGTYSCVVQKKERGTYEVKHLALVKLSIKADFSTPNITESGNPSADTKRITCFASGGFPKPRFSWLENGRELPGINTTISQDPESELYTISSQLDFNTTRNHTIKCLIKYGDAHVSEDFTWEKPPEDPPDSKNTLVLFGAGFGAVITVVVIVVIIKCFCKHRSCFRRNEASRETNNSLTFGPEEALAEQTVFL
Excerpt: T cells were transduced with vectors encoding (a) FLAG-RR12EE345L iCaspase9 CD19-myc-CAR and (b) RR12EE345L linker EE12RR345L CD80 CD20-streptag-CAR. Next, cells were magnetically sorted with anti-FLAG magnetic beads.

[8] = target: T8, R2-EE12RR345L CD28-9c delta; assay: double-transduced C1498 cells sorted with CD34 beads by the captured Q2 zipper (FIG. 19)
T8 construct: also called tandem circular CD20 mimotope-tagged capture leucine zipper
T8 chain: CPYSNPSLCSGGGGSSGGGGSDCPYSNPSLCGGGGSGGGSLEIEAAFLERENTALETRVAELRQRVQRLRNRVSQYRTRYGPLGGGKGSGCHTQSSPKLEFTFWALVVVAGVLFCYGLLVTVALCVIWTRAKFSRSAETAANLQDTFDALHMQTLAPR
Protocol: Next, the cells were magnetically sorted with CD34 beads. Subsequently, the cells were incubated with antibodies in the presence of complement.

Measured: binding result

B1: FLAG-RR12EE345L leucine zipper (secreted, affinity-tagged) (designed binder)
chain: DYKDDDDKLEIRAAFLRQRNTALRTEVAELEQEVQRLENEVSQYETRYGPLGGGK
notes: also called RR12EE345L-FLAG
binds: [1] | [2] | [3] | [4] | [5] | [6] | [7]

B2: Q2-RR12EE345L (designed binder)
chain: GSGELPTQGTFSNVSTNVSGGGGSGGGSELPTQGTFSNVSTNVSGGGGSGGGSALGLEIRAAFLRQRNTALRTEVAELEQEVQRLENEVSQYETRYGPLGGGK
binds: [8]
